The series can be described thus: label from the status in PepcDB records.
With “MKFPGQRKSKHYFPVKTRDPLLEQLTQQPQPFATYISGIDQTLVDIEAKVEDELLSRYGLPKGNSTLINDEQAHTLYTELKQNGLISDEFAGGTIGNTVHNYSILADDRSVLFGVMSQNIEVGSYAYRYLCNTSSKVDLNYLQPVDGPIGRCFTLISDCGERTFAISKGAMDKLTPEYIDKDIVQGSSALVLTAYLMRASGGDRITDAAMCAIEYAKAAEVPVVLTLGTRFLIEEDPIWWQNFIKEHVTILAMNEDEGEALTGFRDPLLASEKALEWCDMVLTTAGPIGLYTAGYTDDAEKRETSHTLLPGAIPEFNRYEFSRPKLKSDCENPIKVYAHISPYMGGPEKIGNTNGAGDGALSALLHDLAANTFHKTNVPGSSKHKRDGLCYSSFSQICKYANRVAYEVLAQHSPRLSRGLPEREDSLEESYWER”, the protein production entry is given as “failed”.
As for “MIENSSPYTSEHFHYTVTDIKDLTKLGAIYDKTKKYWVYQGKPVMPDQFTFELLDFLHQLTHLSFSKMKALLERSHSPYYMLNRDRTLKNITETCKACAQVNASKSLEHHHHHH”, the entry is “not failed”; as for “MSLEWCKNRLEITGRSVFVDIMQQWVTGEEVPLYRHAIQQSIRLFLAGCAGILKPVKCMEYPPFPRLVSHGTGSAVASNLAFQHWLDLLLKDAVLDGDTIRQIDRIYLQSGIASVKWETIPEGARQIITQLMARQYPDWFGVASWSSHINGADCWTKLGVMQEHACNCDMLMIIPTRLAIELNGNSQLLTGVSTTHDLYSHLYGMAWPSGQNIIWQRDRINSLRLDFDSPSYPPSAELMGELSAVFDCEIRHWYQEPVNGIRGYDCYDRGDHVDSGEYGAGPFLPPLKVEEVTVNGQEEAAEGHHHHHH”, “not failed”; as for “MSIFTAAMIALVYWISQAKVWYGFSIMRMPLSIAPIMGLIFNDMPTALSVGATLQMIYIGSIAPGGNPPADEGLASCIAIPIALTAGIKPEIAISLAIPLGLLGVVLENVRKTLNTTFIHMADRYAEKGDIKGIQRAATIYPLLLAFPMRFVPVFIACLYGPDAIASFVNLLPAWSTNGLAIAGNILPALGFAITIIVIGKKQYIPLFIIGFFLVTYSGLNTIGISIFGLCAVLLYMQSQNTKGTKNG”, “failed”.
Turning to “MDSGPLWDANPTPRGTLSAPNATTPWLGRDEELAKVEIGVLATVLVLATGGNLAVLLTLGQLGRKRSRMHLFVLHLALTDLAVALFQVLPQLLWDITYRFQGPDLLCRAVKYLQVLSMFASTYMLLAMTLDRYLAVCHPLRSLQQPGQSTYLLIAAPWLLAAIFSLPQVFIFSLREVIQGSGVLDCWADFGFPWGPRAYLTWTTLAIFVLPVTMLTACYSLICHEICKNLKVKTQAWRVGGGGWRTWDRPSPSTLAATTRGLPSRVSSINTISRAKIRTVKMTFVIVLAYIACWAPFFSVQMWSVWDKNAPDEDSTNVAFTISMLLGNLNSCCNPWIYMGFNSHLLPRPLRHLACCGGPQPRMRRRLSDGSLSSRHTTLLTRSSCPATLSLSLSLTLSGRPRPEESPRDLELADGEGTAETIIF”, the protein production result is given as “failed”.
As to “KGIKKEIHINDKVIYYTHIEKGSSTVCFMFSGSGYNYDKPLFYYATMLMLEHKIDVVHIHYSYDEQVMNKPMEEVTKIMMDDINPVMKEVLKAEQYNDTIFLGKSLGTIPIANDLMKREEFLQSKMILLTPLLTFDTIFDSILHSNHEGFLVMGDKDHQYNADQVDQLHKTNLQIEVVKNANHSVNVGGYETENSIEAIAKIIGKLKEVVRTN”, the protein production entry is recorded as “failed”.
As for “MVNEGLIPSLEDEVKRRGVINQLRKIVVRWVKNVAWQHRLPQNQIDATNATILPYGSYGLGVYGSESDIDALCIGPFFASIADFFISLRDMLKSRREVSELHCVKDAKVPLIRFKFDGILVDLPYAQLRVLSIPNNVDVLNPFFLRDIDETSWKILSGVRANKCILQLVPSLELFQSLLRCVKLWAKRRGVYGNLNGFLGGVHMAILAAFVCGYQPNATLSSLLANFFYTFAHWQWPTPVVLLEDTYPSTGAPPGLMPIQLPCGSHQYCNSTITRSTFYKIVAEFLLGHNLTKDYLKLNFSWKDLFELYPYANTYTWFTKIHLSAANQEDLSDWVGWVKSRFRCLLIKIEEVYGICDPNPTEYVETYTKQPNIVFYWGLQLRTINVSDIESVKIDFLKNVNSGSFRGTVGRIQLTLVKASQLPKNGECGSNNRSKKVTKTCWRIREDKQCNNVPVYSKHLPGYVVGYQKMVNREADGMEVKC”, the entry is “failed”; as for “KDFLAMFSPKCGGCNRPVLENYLSAMDTVWHPECFVCGDCFTSFSTGSFFELDGRPFCELHYHHRRG”, “not failed”.
With “SPEHGQAGRKIGEEGIVLLQNKDNVLPIDLKKARKIAVIGENAIKMMTVGGGSSSLKVKYEISPLDGLKNRVGSQAEVLYVRGYVGDPTGEYNGVQTGQDLKDDRSEDELLAEAVEVSKDADYVIFFGGLNKSNHQDCEDSDRASLGLPYAQDRVIGELAKVNKNLIVVNISGNAVAMPWVNEVPAIVQGWFLGSEAGTALASVLLGDANPSGKLPFTFPARLEDVGAHKLGEYPGNKEELAHSKNNGDTINEIYREDIFVGYRWADKEKIKPLFPFGHGLSYTTF” the entry was “failed”; with “MSEATILVSGATGRTGGAAIDELLKSGKQVRAYVRSNDDRAAAFRKRGVEVAIGDFTGIDDIRAAMEGVTSAYFLHPIAPGIIGAAAYFAQAAKEAGVSAIVNMSQISARRESASHAAQDHWISERVFDWSGVATTHLRPTFFADWLVYPHFAKEIWAKKKIEFPFENGRHAPIATDDQGRVIAHILANPEGHGGKTYTLTGPIELNHTEIAAAMSEVLGAKIEYAPTSIDEFRNKMENVYKFPPFLTQHLVEVAQNYRDGIFSGANDAVEKITGTPALSVQQFIAQNRAVFA”, “failed”.
As for “MENLYKELGDQSLHKDFCQTVASTFSCSVNRNGKSSITWKQVQIWFQEKLKHQSQPKSKTLPSPPLQIHDLSNPSSYASNASNATFVGNSTFVQTRKGKASDLADLAFEAKSARDYAWYDVSSFLTYRVLRTGELEVRVRFSGFDNRHDEWVNVKTSVRERSIPVEPSECGRVNVGDLLLCFQEREDQALYCDGHVLNIKRGIHDHARCNCVFLVRYELDNTEESLGLERICRRPEE”, the entry is “failed”; as for “MTTTASQEAFLQAFHAEYPAVTAEAFGRGHAPDGRSSYEILCDRVAGSMRVLDLGCGDGLLLEFLARRSGRQLAGVDLSPHSLALARRRPALSEAKLEEGRAQELPFADDSFDACVSHMALMLMSEIEQVASEVARVLSPGGVLACVVGGGAVGGEAYERFLALLRCTIEETPASQRIPALGDKRTRSREGLDEVLGPAGFTAVDWETVPIDLSAPGEQVWAAVSSLYDLGPLDRATLDRLREAFFAEVRDMTTSEGHVPCAFKIHLATARLR”, “failed”.
As to “MTDFQKQFFARLNIEEKQKVSFEDLSNIMYAMAQTVPFENLNVLEKNFKEISQENLKEKILVNNRGGLCYELNPTMYYFLKDAGFDVYLVSGTVYNAANSIWAVDSGHIATILKHHNELYLIEVGFGSYLPLAPVPFSGEVVQSVTGDYRIRKEMTEKGNYMLEMRKNDEFLDQSSTDDWTLGYAFYIEEVDEKKQMQHKKLLLNTMAHHLTKYLLL”, the protein production result was “failed”.
With “MQSGDGRRGRLRIFFGFAAGVGKTYGMLTEAHELLMMGKHVVVGYIEPHDRPDTNRLLEGLPQIPPKNIFYKQMVLTEPDIDQIIQQKPEIVLIDELAHSNAEGSRNRKRYQDIDELLNAGIDVFTTVNVQHIESLNDIVEEVTGIEVKETVPDTFLRQATIRVIDVEPDELIERLEQGKIYANENAKRALKNFFIPQKLDQLRGLAIQRASDHINRISGKTIGIQSKLLTVVNDAFPKMTEKCIRWTARLAQGLVVDWTVIQVRTQENTPTNIPLADKLGAEVISIEEDDSFETIVEFAKMTGVTDIIMGKNLRQPWYEKIFIEAFDDRLLKRLKDTELHLIPFNEEKRSLFFKTRKVIEGGGKDLVIAIGGVFLATVVTELMQYIHVGDQNLMLIYISFVLLVARTTSGYFWSSLSSILSVLSFNWFFVEPLYSLTVYKQGYPFTLLLMLVVALMSSNLMIRLKKQADTSMKKEHQMEILYELNKRYVLVESRKQILDISATYLSRLLEREVIIFDRQVKTESVHCINEKKSILNNEDEAAVAFWAAKNQKEAGNGTDTLNGAKGFYLPIAAGRKTLAVLGIERNADLDLENDQLNYLKLVLTQIAVILEQTELKDEKEQVELENEREKVRSNLLRAVSHDLRTPLTVISGIAETLGIGNDLKEETQRKLLKDIQEESQWLIRMVENLLSITRINMDTMKVNKTAEPVEEVIEAVYKHLRKVYPDGQVDIHLPEEVIFIQADPILIEQALFNLIENAFRHGENDLPVKLNVYQEKEQTVFEIENHGEIPLKQFQKIQSNLSGTNEVPVDSKNGLGIGLSIVKTIVHAHNGKMEMTIGRGKTLVRIYLK” the entry was “failed”; with “MATKGLKMVTLALLDDKGVIVKGETGLSTNGVFPITDEMLGTKTANITNLSSAPTMIYGNDGQVDADIAKGTPSVAFAFNGLPVDIKNKLLGRVNDTKGGYTQGSIPKVAVLIQTTTIGTAKPQYVAFAAGKMNETAMNLQTNTNAVVRVDDALTFTAFSVSRWGGEAVKFFDGGDSKFTEDVMMKDVFNGYAGVGV”, “failed”.
Consider “MSSTALEMASRFVNRSPFNRWLGMSVLEAGEQGIVLGIKWREELISSPEIRSTHGGILATLVDAAGDYAVALKTGHPVPTMDMHVDYHRVATPGDLRAEGQVIHFGKRFATAHARVLDMDGNLVASGRALYLIRAPQPGAAQGAA”, for which the protein production entry is listed as “failed”.
Regarding “MASGLSEIGSTKMFDGYNKRYKHFSETLGCSMTFSIYFPPSASSSHKSPVLYWLSGLTCTDENFIIKSGAQRAASTHGIALVAPDTSPRGLNVEGEADSYDFGVGAGFYLNATQEKWKNWRMYDYVVKELPKLLSENFSQLDTTKASISGHSMGGHGALTIYLRNLDKYKSVSAFAPITNPINCAWGQKAFTNYLGDNKAAWEEYDATCLISKYNNLSATILIDQGENDQFYPDQLLPSKFEEACKKVNAPLLLRLHPGYDHSYYFIATFIEDHISHHAQALEL”, the protein production entry is given as “failed”.
With “MNEFMEPLDRISAETLGHYERNAEAFFEGTRDHDVSQNIAALLSHIRTEPPFTVLDFGCGPGRDLKAFTELGHRAVGLDGAFRFVEMARDYSGCEVWHQDFLKLDLPEEHFDGIFANATLFHVPSRELPRVLGELRAALKPEGVLFASNPRGRNEEGWNRGRYGVYHDLDTWRRFLTSAGFLELEHYYRPAGLPRDQQPWLASVWRRTLEHHHHHH” the entry was “not failed”; with “SRKRLSAPELRLSLTKGPGNDGASPTQSAPSSPDGSSDLEIDELETPSDSEQLDSGHEFEWEDELPRAEGLGTSETAERLGRGCMWDVTGEDGHHWRVFRMGPREQRVDMTVIEPYKKVLSHGGYHGDGLNAVILFASCYLPRSSIPNYTYVMEHLFRYMVGTLELLVAENYLLVHLSGGTSRAQVPPLSWIRQCYRTLDRRLRKNLRALVVVHATWYVKAFLALLRPFISSKFTRKIRFLDSLGELAQLISLDQVHIPEAVRQLDRDLHGSGGT”, “failed”; with “MNSLSLFSPSFTDSVFDALDRSLGPNFGVFAPIKNASCGMPSVDIRETEKAYVMEVDLPGYSEKDVEISLKDRLMTISSSKKEEKEDKGAEYIIKERSSRHFMRRFTLPEDINSDEVSAKFENGVLVVNIPRKPDTQPKQIEIKTA”, “failed”.
